{
  "source": "the nanobody polyreactivity screen of Harvey et al. (2022)",
  "data": [
    {"assay": "yeast display, Sf9 membrane polyspecificity reagent, FACS + sequencing; frameworks hold sequencing errors", "outline": "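Sorting gates, low and high (top ~1%), were placed on anti-HA fluorescence to track expression and on streptavidin fluorescence to track reagent binding. A clone's polyreactivity label is taken from the gate it came out of. The reagent was 10% biotinylated, detergent-solubilized Sf9 membrane, applied for 1 hour at 4 °C to galactose-induced yeast display cells.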", "values": [
      {"sequence": "QVQLHESGGGLEQEGGSLRLTCEASGNISPPADMGWYRQAPRKERELVASIGTGGTTNYADIVKARFTISRDNAKNTVYLQMNSLKPDDTSVYYWAAVRYEYNPYDYWGQGTQVTVSS", "polyreactivity (PSR sort gate)": "low polyreactivity"},
      {"sequence": "QVQLHESGGGLLQAGGTLRLSCAASGTISYAGPMCWYRQSPGKEREFVAGIGVGSNTNYADSVKGRYTIIRDNAKNTVYLQMNSLKPEDTAVYYCAVGGFAPLGRPYWGQGTQVTVSS", "polyreactivity (PSR sort gate)": "low polyreactivity"},
      {"sequence": "QVQLHESGGGLVQAGGSLRLSCAASGTISVTYNMAWYRQAPGKEREFVAGNSTGATTNYADSVKGRFTISRDNAKNTVYLQMNSLKPEDTAVYYCAAHIYRQDHFYYWGQGTQVTVSS", "polyreactivity (PSR sort gate)": "low polyreactivity"},
      {"sequence": "QVQLHESGGGLVQAGGSLRLSCAASGTISYAGPMGWYRQAPGKEREFVAGIGVGSNTNYADSVKGRYTIIRDNAKNTVYLQMNSLKPEDTAVDYCAVGGYAPLGRPYWGQGTQVTVSS", "polyreactivity (PSR sort gate)": "low polyreactivity"},
      {"sequence": "QVQLHESGGGLVQAGGSLRLSCAASGTISYAGPMGWYRQAPGKEREFVAGIGVGSNTNYADSVKGRYTIIRDNAKNTVYLQMNSLQPEDTAVYYCAVGGFAPLGRPYWGQGTQVTVSS", "polyreactivity (PSR sort gate)": "low polyreactivity"},
      {"sequence": "QVQLHESGGGMVQAGGSLRLSSAASGIIFDNPNMGWYRLSPGKERELVATINSGATTNYADSVKGRFTISRDNEKNTVYLLMNSLIPEETAVYFCAVDLSPTYFYYWGQGTKVTVSS", "polyreactivity (PSR sort gate)": "high polyreactivity"},
      {"sequence": "QVQLIESGGGLVKAGGSLRLSCAATGSIFYRNTMGWYRQAPGKERELVARISWSGGRTYYADSVKGRFTISRDNAKNTVYLQMNSLKPEDTAVYYCAASTYGQRGTSYGYWGQGTQVSVSS", "polyreactivity (PSR sort gate)": "low polyreactivity"},
      {"sequence": "QVQLIESGGGLVQAGGSLRLSCAASGIIFRTYAMGWYRQAPGKERELVAAITSGGSTNYADSVKGRFTISRDNAKNTVYLQMNSLKPEDTAVYYCAARTYTSRYSYGYWGQGTQVTVSS", "polyreactivity (PSR sort gate)": "high polyreactivity"},
      {"sequence": "QVQLIESGGGLVQAGGSLRLSCAASGSTFERNTMGWYRQAPGKERELVAAITSGGRTYYADSVKGRFTISRDNAKNTVYLQMNSLKPEDTAVYYCAARLGRHVSYWRSGWTNMDYWGQGTQVTVSS", "polyreactivity (PSR sort gate)": "high polyreactivity"},
      {"sequence": "QVQLIESGGGLVQAGGSLRLSCAASGSTFYGNAMGWYRQAPGKEREFVDAITGSGDSTDYADSVKGRFTISRDNAKNTVYLQMNSLKPEDTAVYFCNAEVFDRDSYEYWGQGTQVSVSS", "polyreactivity (PSR sort gate)": "low polyreactivity"},
      {"sequence": "QVQLIESGGGLVQAGGSLRLSCAASGSTLGLYDMGWYRQAPGKERELVAAISTGSGSTYYADSVKGRFTISRDNAKYTVYLLMISLKPEDTAVYYCNTDAWYSPIWFWVDSWGQGTQVTVSS", "polyreactivity (PSR sort gate)": "low polyreactivity"},
      {"sequence": "QVQLIESGGVLVQAGGSLRLSCAASGSTFTINVMGWYRQAPGKERELVAAINGGGRTNYADSVKGRFTISRDNAKNTVYLQINSLKPEDTAVYYCAADGLSNVRQMDYWGQGTQVTVSS", "polyreactivity (PSR sort gate)": "low polyreactivity"},
      {"sequence": "QVQLKESGAGLVQAGGSLRLCCAASGNIIPDAGMGWYRQAPGKEREFVAGISRGANTYYADSVKGRFTISRDNAKNSVYLQMNSLKPEDTAVYYCNAGSSYLCRFPLDYWGQGTQVTVSS", "polyreactivity (PSR sort gate)": "high polyreactivity"},
      {"sequence": "QVQLLDSGGGLVQAGGSLRLSCAASGFIFRPYPMACYRQSPGKERELVAPITGGGSTYYADSVKGRFTISRENAKNTVYLQMNSLKPEDTAVYYCNADRRRRSGGFAGWHFQRNDFWGQGTQVTVSS", "polyreactivity (PSR sort gate)": "low polyreactivity"},
      {"sequence": "QVQLLESAGGLVQAGGSLRLICAASGSTFYNYAMGWYRQAPGKERELVDSITSSGVSTYYADSVKGRFTISRDIAKNTVYLQMNSLKPDDTAVYYCNADDGYGQVHSISTYEMDYWGQGTQVTVSS", "polyreactivity (PSR sort gate)": "low polyreactivity"},
      {"sequence": "QVQLLESGCGLVQAGGSLRLSCMASGSILGDRMSWYRQAPGKEHELVATIYDGGITYYADSMKGRFTISRDNAKNTVYLQMNSLRPEDTAVYYCGASFEGYRYHVYCGQGTQVTVSS", "polyreactivity (PSR sort gate)": "low polyreactivity"},
      {"sequence": "QVQLLESGGCLVQAGGSLRLSCAASGSTFWHNAMGWYRQAPGKERELVAAISSGSSTYYADSVKGRFTISRDNAKNTVYLQMNSLKPEDTAVYYCAKELYLGYRYWGYYWGQGTQVTVSS", "polyreactivity (PSR sort gate)": "high polyreactivity"},
      {"sequence": "QVQLLESGGGIVQAGGSHRLRCAASGSIFGTNAMCWYRQATGKERELVAAISLSTGSTYYADSVKGRFTISRDNAKNTVYLQMNSLKPEDTAVYYCAAYYVTPIYYYWGQGTQVTVSS", "polyreactivity (PSR sort gate)": "low polyreactivity"},
      {"sequence": "QVQLLESGGGLDQAGGSLRLTSAASGSIFYGYAMGWYRQAPRKERELVAAISYSGDRTYYADSVKGRFTISRDNAKNTVYLQMNSLKPEDTAVYYCAARKHGGTVRGRRDYWGQGTQVTVSS", "polyreactivity (PSR sort gate)": "high polyreactivity"},
      {"sequence": "QVQLLESGGGLVKAGGSLRVSCAASGLTFNYYAMGWYRHAPGKDRELCAAISRRGGYTYYADSVKGRFTISRDNAKNTVYVQKNSQKPEDTAVYDCAADNYEHNYYGYYYWGQGNQVTVSS", "polyreactivity (PSR sort gate)": "high polyreactivity"},
      {"sequence": "QVQLLESGGGLVQAGGSLLLSCAASGLTFHRYAMGWYRQAPGKERELFAAINYSGGRTYYADSVKGRFTISRDNAKNTVYLQMNSLKPEDSAVYYCAARYLGCDYSGSWWKYYYWGQGTQVTVSS", "polyreactivity (PSR sort gate)": "high polyreactivity"},
      {"sequence": "QVQLLESGGGLVQAGGSLRLSCAASGFIFKGNAMGWYRQAPGKERELVAAITNRGGGTYYADSVKGRFTISRDNAKNTVYLLMNSLKPEDTAVYYCAKAYTLPFHPYDYWGQGTQVTVSS", "polyreactivity (PSR sort gate)": "high polyreactivity"},
      {"sequence": "QVQLLESGGGLVQAGGSLRLSCAASGFTFWYYAMGWYRQAPGKEREFVASISWNGGRTYYADSVKGRFTISRDNAMNTVYLQMNSLKPEDTAVYYCATRVIYSFTDFKGDYWGQGTQVTVSS", "polyreactivity (PSR sort gate)": "high polyreactivity"},
      {"sequence": "QVQLLESGGGLVQAGGSLRLSCAASGGTFRPYAMGWYRQAPGKERELVAAISFTGSTYYADSVKGRFTISRDNAKNTVYLQMNSLKPEDTAVYYCAKDFWYPPRFDYWGQGTQVTVSS", "polyreactivity (PSR sort gate)": "low polyreactivity"},
      {"sequence": "QVQLLESGGGLVQAGGSLRLSCAASGIIFCEYAMGWYTQAPGKERELVATITSGDSTNYADSVKGRFTISRDNAKNTVYLQMNSLKPEDTAVYYCIADYAFLPSYDYWGQGTQVTVSS", "polyreactivity (PSR sort gate)": "low polyreactivity"},
      {"sequence": "QVQLLESGGGLVQAGGSLRLSCAASGIIVSYAMGWYRQAPGKERELVAAIRYSGDSTYYADSVKGRFTISRDNAKNTVYLQMNSLKPEDTAVYYCAATKGWSRYEYWGQGTQVTVSS", "polyreactivity (PSR sort gate)": "low polyreactivity"},
      {"sequence": "QVQLLESGGGLVQAGGSLRLSCAASGLIFAYAMGWYRQAPGKERELVAVISWSGGSTYYADSVKGRFTISRDNAKNTVYLQKNSLKPEDTAVYYCAADYFGNWQLAGGYLGQGTQVTVSS", "polyreactivity (PSR sort gate)": "low polyreactivity"},
      {"sequence": "QVQLLESGGGLVQAGGSLRLSCAASGLIFWGYAMGWYRQAPGKERELVAAINATGGRTYYADSVKGRFTISRDNAKNTVYLQMNSLKPEDTAVYYCAAYSGFYDSYDYWGQGTQVTVSS", "polyreactivity (PSR sort gate)": "low polyreactivity"},
      {"sequence": "QVQLLESGGGLVQAGGSLRLSCAASGLTFSSYTMGWYRQAPGKERELVAANTRRGTSTYYADSVKGRFTISRDNAKNTVYLQMNSLKPEDTAVYYCNALVYDEYGYYHYYLRNGGYYWGQGTQVTVSS", "polyreactivity (PSR sort gate)": "high polyreactivity"},
      {"sequence": "QVQLLESGGGLVQAGGSLRLSCAASGRIFGRYAMGWYRQAPGKERELVAAISSGGRTNYADSVKGRFTISRDNAKNTVYLQMNSLKPEDTAVYYCAARAYTYQAQSNYWGQGTQVTVSS", "polyreactivity (PSR sort gate)": "high polyreactivity"},
      {"sequence": "QVQLLESGGGLVQAGGSLRLSCAASGRIFKFKAMGWYRQAPGKERQLVAATWSGGRTSYADSVKGRITISRDNAKYTVYLQMNSLKPEDTAVYYCAARWFDGDWDYWYDYWGQGTQVTVSS", "polyreactivity (PSR sort gate)": "low polyreactivity"},
      {"sequence": "QVQLLESGGGLVQAGGSLRLSCAASGRTFAWNAMGWYRQAPGNERELVARLRSSGSTYYADSVKGRFTISRDNAKNTVYLQMNSLKPEDTAVYYGAKKWGWFPVYYWGQGTQVTVSS", "polyreactivity (PSR sort gate)": "high polyreactivity"},
      {"sequence": "QVQLLESGGGLVQAGGSLRLSCAASGRTFTRNAMGWNRQAPGKERELVATIRYSTGTTYYADSVKGRFTISRDNAKNTVYLQMNSLKPEDTAVYYCAARVYRYRGYDSWGKGTQVTVSS", "polyreactivity (PSR sort gate)": "high polyreactivity"},
      {"sequence": "QVQLLESGGGLVQAGGSLRLSCAASGRTFWYYVMGWYRQAPGKERELFAAITSSGGSTYYADSVKGRFTISRDNAKNSVYLQMNSLKAEDTSVYYCGAAAYTRGYYWGQGTEVTVSS", "polyreactivity (PSR sort gate)": "low polyreactivity"},
      {"sequence": "QVQLLESGGGLVQAGGSLRLSCAASGRTFYRTAKGWYRQAPGKERELVASITRSGNTNYADSVKGRFTISRDNAKNTVYLQMNSLKPEDTAVYYCAARPWLRNKYDYWGQGTQVTVSS", "polyreactivity (PSR sort gate)": "high polyreactivity"},
      {"sequence": "QVQLLESGGGLVQAGGSLRLSCAASGSIFANNAMGWYRQSPGKEREMVAAIDWSAASTYYADSVKGRFTISRDNAKNTVYLQMNSLKPEDTAVYYWNRRGSGGESYRTTTGALGYWGQGTQVTVSS", "polyreactivity (PSR sort gate)": "low polyreactivity"},
      {"sequence": "QVQLLESGGGLVQAGGSLRLSCAASGSIFATYAMGWYRQAPGKERELVAAISSSGARTYYADSVKGRFTISRDNAKNTVYLQMNSLKPEDTAVYYCNADLYSYFWRVRYGLDYWGQGTQVTVSS", "polyreactivity (PSR sort gate)": "high polyreactivity"},
      {"sequence": "QVQLLESGGGLVQAGGSLRLSCAASGSIFDPYAMGWYRQAPGKERELVAVINDGGRTTYADSVKGRFTISRDNAKNTVYLQMNRLKPEDTAVYYCAATSYFSRWDLYGYWGQGTQVTVSS", "polyreactivity (PSR sort gate)": "low polyreactivity"},
      {"sequence": "QVQLLESGGGLVQAGGSLRLSCAASGSIFGLYAMGWYRQAPGKERELVAAISPRGGSTYYADSVKGRFTISRDNAKNTVYLQMNSLKPEDTAVYYCNRDYIRYALGHDYWGQGTQVTVSS", "polyreactivity (PSR sort gate)": "high polyreactivity"},
      {"sequence": "QVQLLESGGGLVQAGGSLRLSCAASGSIFTEYAMGWYRQAPGKERELVAAITYSGGSTYYADSVKGRFTISRDNAKNTVYLQMHSLKPDDTAVYYCNADYRIYVAYYYWGQGTQVTVSS", "polyreactivity (PSR sort gate)": "low polyreactivity"},
      {"sequence": "QVQLLESGGGLVQAGGSLRLSCAASGSTFGYYAMGWYRQAPGKERELVAAITRSGSSTYYADSVKGRFTISRDNAKNTVYLQMNSLKPEDTAVYYCAAEARYWIYEYDYWGQGTQVTGSS", "polyreactivity (PSR sort gate)": "high polyreactivity"}
    ]}
  ]
}
